The values that follow come from PMC11740656.

The test deals with human CLDN4 (YFP- or CFP-tagged) (human). Briefly: FRET or BRET.

“And” between values parts separate entries of the source, which are not always exact repeats. Equal values may be shown once.

Take “human CLDN8 (YFP- or CFP-tagged) (natural protein)”: the stoichiometry N (hCLDN8:hCLDN4) is 0.5 and 0.25.
